Results on 1 substance are retold here after publication PMC8782398.

In assay [1] the target is human NOP receptor in HEK293 cells (human) (UniProt P41146).
Assay [2] has the same target. The source holds these as a separate data set.
Assay [3] has the same target. This is another data set of the same source.

Chain of human NOP receptor in HEK293 cells (human) (P41146 whole entry): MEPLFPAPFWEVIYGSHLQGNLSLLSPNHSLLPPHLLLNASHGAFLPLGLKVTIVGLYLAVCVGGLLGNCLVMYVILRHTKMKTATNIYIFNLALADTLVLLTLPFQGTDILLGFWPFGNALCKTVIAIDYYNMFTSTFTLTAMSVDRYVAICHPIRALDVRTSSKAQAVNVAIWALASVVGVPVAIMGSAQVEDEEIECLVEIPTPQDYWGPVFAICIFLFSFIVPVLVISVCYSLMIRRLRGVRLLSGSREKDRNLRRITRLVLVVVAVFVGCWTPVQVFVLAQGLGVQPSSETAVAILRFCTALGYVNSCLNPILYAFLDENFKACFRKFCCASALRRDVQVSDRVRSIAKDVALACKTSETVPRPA

Consider “human MOP receptor in HEK293 cells (from UniProt P35372 1-400)”, for which, in assay [1], the ERK1/2 phosphorylation (fold over basal), 1 μM N/OFQ, HEK (MOP/NOP) cells, 2.5-30 min; peak at 7.5-10 min turned out to be 5 fold. Moreover, in assay [2], the GTPγ[35S] binding stimulated by De101, HEK (MOP/NOP) membranes: pEC50 was 8.67; the GTPγ[35S] binding stimulated by DeNO, HEK (MOP/NOP) membranes: pEC50 turned out to be 7.63; the GTPγ[35S] binding stimulated by Dermorphin, HEK (MOP/NOP) membranes: pEC50 was 7.6; the inhibition of cAMP formation by De101, HEK (MOP/NOP) cells: Emax (% inhibition) worked out at 86%. Besides, in assay [2], the inhibition of cAMP formation by De101, HEK (MOP/NOP) cells: pEC50 was determined as 8.81; the inhibition of cAMP formation by DeNO, HEK (MOP/NOP) cells: Emax (% inhibition) stood at 88.6%; the inhibition of cAMP formation by DeNO, HEK (MOP/NOP) cells: pEC50 was determined as 7.55; the inhibition of cAMP formation by Dermorphin & N/OFQ (co-administered), HEK (MOP/NOP) cells: Emax (% inhibition) came to 81.3%. In assay [2], the inhibition of cAMP formation by Dermorphin & UFP-101 (co-administered), HEK (MOP/NOP) cells: Emax (% inhibition) was determined as 84.4%; the inhibition of cAMP formation by Dermorphin & UFP-101 (co-administered), HEK (MOP/NOP) cells: pEC50 came to 8.95; the inhibition of cAMP formation by Dermorphin, HEK (MOP/NOP) cells: Emax (% inhibition) came to 81.4%; the inhibition of cAMP formation by Dermorphin, HEK (MOP/NOP) cells: pEC50 worked out at 7.59. In assay [2], this substance had an inhibition of cAMP formation by N/OFQ, HEK (MOP/NOP) cells: Emax (% inhibition) of 86.3% and an inhibition of cAMP formation by N/OFQ, HEK (MOP/NOP) cells: pEC50 of 9.17. Also, the ERK1/2 phosphorylation (fold over basal), 1 μM Dermorphin, HEK (MOP/NOP) cells, 2.5-30 min; peak at 10 min in assay [3] was determined as 11.8 fold.
